According to paper doi:10.1101/2024.06.14.599074, “A higher order PUF complex is central to regulation of C. elegans germline stem cells” (bioRxiv, 2024):
Several values for one entry are separate records, joined by “and”; a condition that tells them apart may be missing. Equal entries are not always repeated.

Key:
[1] = molecular target: T1, C. elegans FBF-2 RBD+CT (residues 164–632) (C. elegans, UniProt Q09312 164-632); assay: cell-based or functional assay
T1 sequence (looked up): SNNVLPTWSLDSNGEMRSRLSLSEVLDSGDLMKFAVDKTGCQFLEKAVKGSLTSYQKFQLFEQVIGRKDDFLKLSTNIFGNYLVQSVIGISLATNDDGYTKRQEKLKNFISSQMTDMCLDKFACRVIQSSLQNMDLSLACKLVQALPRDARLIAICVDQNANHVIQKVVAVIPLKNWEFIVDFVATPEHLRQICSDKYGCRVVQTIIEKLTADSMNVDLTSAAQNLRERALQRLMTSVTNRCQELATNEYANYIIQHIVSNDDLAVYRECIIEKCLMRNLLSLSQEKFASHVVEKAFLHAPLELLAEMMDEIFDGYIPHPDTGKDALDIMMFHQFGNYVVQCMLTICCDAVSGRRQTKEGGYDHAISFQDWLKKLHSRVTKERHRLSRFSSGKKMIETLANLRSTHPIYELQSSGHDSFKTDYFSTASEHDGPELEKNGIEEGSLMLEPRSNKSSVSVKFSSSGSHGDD

[2] = molecular target: T2, FBF-2 RBD protein (residue 164–575) (C. elegans, UniProt Q09312 164-575); assay: ITC; LST-1 (100–400 μM) titrated from the syringe into the cell containing FBF-2 (10–30 μM); 20 °C; 20 mM HEPES pH 7.4, 150 mM NaCl, 0.5 mM TCEP; no RNA; one-site model; two technical replicates; conditions: both partners purified
T2 construct: Tag cleaved with TEV protease (construct derived from an earlier pGEX6p FBF-2 RBD construct); source: E. coli, purified (as FBF-2 RBD+CT); for SEC-MALS and cryo-EM coexpressed with GST-fused LST-1^19-98 and purified as a complex
T2 sequence (looked up): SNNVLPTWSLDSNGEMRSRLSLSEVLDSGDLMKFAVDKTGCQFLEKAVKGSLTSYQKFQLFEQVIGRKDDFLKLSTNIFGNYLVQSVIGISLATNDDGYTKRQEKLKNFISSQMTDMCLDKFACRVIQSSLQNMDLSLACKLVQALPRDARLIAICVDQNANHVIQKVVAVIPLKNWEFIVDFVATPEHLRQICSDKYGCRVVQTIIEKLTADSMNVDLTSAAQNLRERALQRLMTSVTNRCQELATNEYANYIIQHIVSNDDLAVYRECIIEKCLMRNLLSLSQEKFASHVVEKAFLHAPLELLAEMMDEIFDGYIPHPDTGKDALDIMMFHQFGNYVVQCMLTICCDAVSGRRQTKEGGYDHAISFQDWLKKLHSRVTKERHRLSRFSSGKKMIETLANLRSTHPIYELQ

[3] = molecular target: T1, C. elegans FBF-2 RBD+CT (residues …); assay: as above; conditions: both partners purified
[4] = molecular target: T2, FBF-2 RBD protein (residue 164–575); assay: SEC-MALS; purified FBF-2 RBD+CT or RBD/LST-1^19-98 protein (~30 μM) with 29-nt gld-1 FBEa-FBEa* RNA; Superdex-200 10/300 GL; 20 mM HEPES pH 7.4, 150 mM NaCl, 2 mM DTT; conditions: both partners purified
[5] = molecular target: T1, C. elegans FBF-2 RBD+CT (residues …); assay: as above; conditions: both partners purified
[6] = molecular target: T2, FBF-2 RBD protein (residue 164–575); assay: FRET or BRET; 2 μM unlabeled FBF-2 RBD pre-incubated with Cy5-labeled LST-1^19-98 (20, 40, 80 nM), then 20 nM 5′-Cy3-labeled gld-1 FBEa-FBEa* RNA; room temperature; FRET from Cy3 in the RNA to Cy5 in LST-1; conditions: both partners purified

B1: LST-1^19-98 (LST-1 residues 19–98, spanning PIM-A and PIM-B) (domain or fragment, C. elegans, UniProt P91820 19-98, looked up)
chain: STIAYSKSQHEAPKQLLQLRSEIKPLIPLNQPSNFWESSQDSGVLSSLSSSPQQRSGLRSQKLHLTYIEKNKRVRAMIPQ
notes: LST-1, C. elegans, residues 19–98 of the N-terminal intrinsically disordered region, with PIM-A and PIM-B; Codon-optimized synthetic cDNA in the pSMT3 vector; tag removed with Ulp1; also called LST-1 peptide (residues 19–98); source: E. coli BL21-CodonPlus (DE3)-RIL, purified (Ni-NTA, heparin, Ni-NTA pass, Superdex 75)
EMSA: RNA-binding affinity of FBF-2 RBD+CT for gld-1 FBEa-FBEa* RNA with 10 μM LST-1^19-98 against without LST-1 [1]: 4 fold
Kd [2]: 480 nM and 520 nM
dH [2]: -33.2 kcal/mol and -37.5 kcal/mol
stoichiometry N [2]: 0.46 sites
Kd [3]: 1100 nM and 1900 nM
dH [3]: -14.8 kcal/mol and -10.8 kcal/mol
stoichiometry N [3]: 0.5 sites and 0.57 sites

B2: LST-1^19-98 from the GST fusion coexpressed with FBF-2 (domain or fragment, C. elegans, UniProt P91820 19-98, looked up)
chain: STIAYSKSQHEAPKQLLQLRSEIKPLIPLNQPSNFWESSQDSGVLSSLSSSPQQRSGLRSQKLHLTYIEKNKRVRAMIPQ
notes: LST-1, C. elegans, residues 19–98; GST cleaved off with TEV protease; also called GST-LST-1^19-98
stoichiometry N [4]: 2 FBF-2 per LST-1
stoichiometry N [5]: 2 FBF-2 per LST-1

B3: C74-labeled LST-1^19-98 (S74C, Cy5) (domain or fragment, C. elegans, UniProt P91820 19-98, looked up)
chain: STIAYSKSQHEAPKQLLQLRSEIKPLIPLNQPSNFWESSQDSGVLSSLSSSPQQRCGLRSQKLHLTYIEKNKRVRAMIPQ
modifications: Cy5 on C74 via cysteine-maleimide conjugation
notes: LST-1, C. elegans, residues 19–98, cysteine in place of S74, five residues upstream of PIM-B; Probably made like wild-type LST-1^19-98 (His6-SUMO, cleaved); source: purified
binding result [6]: binds

B4: LST-1^19-98(A^m) (domain or fragment, C. elegans, UniProt P91820 19-98, looked up)
chain: STIAYSKSQHEAPAQLAQLRSEIKPLIPLNQPSNFWESSQDSGVLSSLSSSPQQRSGLRSQKLHLTYIEKNKRVRAMIPQ
notes: LST-1, C. elegans, residues 19–98, PIM-A mutated, PIM-B intact; also called LST-1 A^m; K32A/L35A double mutant in PIM-A; source: E. coli, purified (same protocol as for WT protein)
Kd [2]: 130 nM and 120 nM
dH [2]: -15.3 kcal/mol and -16.5 kcal/mol
stoichiometry N [2]: 1.15 sites and 1.05 sites
Kd [3]: 3700 nM and 2800 nM
dH [3]: -11.4 kcal/mol and -11.5 kcal/mol
stoichiometry N [3]: 1.02 sites and 0.98 sites

B5: C26-labeled LST-1^19-98 (S26C, Cy5) (domain or fragment, C. elegans, UniProt P91820 19-98, looked up)
chain: STIAYSKCQHEAPKQLLQLRSEIKPLIPLNQPSNFWESSQDSGVLSSLSSSPQQRSGLRSQKLHLTYIEKNKRVRAMIPQ
modifications: Cy5 on C26 via cysteine-maleimide conjugation
notes: LST-1, C. elegans, residues 19–98, cysteine in place of S26, five residues upstream of PIM-A; Probably made like wild-type LST-1^19-98 (His6-SUMO, cleaved); source: purified
binding result [6]: binds

B6: LST-1^19-98(B^m) (domain or fragment, C. elegans, UniProt P91820 19-98, looked up)
chain: STIAYSKSQHEAPKQLLQLRSEIKPLIPLNQPSNFWESSQDSGVLSSLSSSPQQRSGLRSQALHATAIEKNKRVRAMIPQ
notes: LST-1, C. elegans, residues 19–98, PIM-B mutated, PIM-A intact; also called LST-1 B^m; K80A/L83A/Y85A triple mutant in PIM-B; source: E. coli, purified (same protocol as for WT protein)
Kd [2]: 1460 nM and 1540 nM
dH [2]: -12.1 kcal/mol and -12.5 kcal/mol
stoichiometry N [2]: 0.83 sites and 0.86 sites
Kd [3]: 24100 nM and 46200 nM
dH [3]: -11.1 kcal/mol and -11.5 kcal/mol
stoichiometry N [3]: 1.06 sites and 0.89 sites
